Data taken from the RNAGym collection of RNA variant scans (doi:10.1093/molbev/msab373).

B1: Azoarcus group I ribozyme (parent)
chain: GUGCCUUGCGCCGGGAAACCACGCAAGGGAUGGUGUCAAAUUCGGCGAAACCUAAGCGCCCGCCCGGGCGUAUGGCAACGCCGAGCCAAGCUUCGGCGCCUGCGCCGAUGAAGGUGUAGAGACUAGACGGCACCCACCUAAGGCAAACGCUAUGGUGAAGGCAUAGUCCAGGGAGUGGCGAAAGUCACACAAACCGG

Variants of: B1
Assay: reverse-splicing fitness (ratio to wild type); higher = more active; in vitro selection; Mg2+ level not given
Outline: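 An in vitro group I ribozyme library with randomized positions was T7-transcribed and gel-purified. In triplicate, 10 pmol RNA in EPPS pH 7.5 was reacted with 50 pmoles of a 30-nt RNA substrate for 1 h at 37 °C across several added MgCl2 levels (1–48 mM), then stopped with EDTA. Products were reverse transcribed from a substrate-complementary primer, PCR-amplified and sequenced (HiSeq 4000). Fitness is a variant's read proportion after selection over that before, normalised to wild type.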

First: C82U A111C A145G C150G U176G
Second: C82U A111C A145G C169A U176A
The reverse-splicing fitness of the first is lower: 0.00671 for the first, 0.0231 for the second.

First: C82U A111C A145G C169A U176G
Second: C82U A111C A145G C169A U176C
The reverse-splicing fitness of the first is lower: 0.00741 for the first, 0.0298 for the second.

First: C82U A111C A145C C150A C169U U176G
Second: C82U A111C A145C C150A C169U U176A
The reverse-splicing fitness of the first is lower: 0.00709 for the first, 0.0154 for the second.

First: C82U A111C A145C C150A C169U U176C
Second: C82U A111C C150G C169A U176G
The reverse-splicing fitness of the first is higher: 0.0106 for the first, 0.00672 for the second.

First: C82U A111C C150G C169A U176A
Second: C82U A111C C150G C169A U176C
The reverse-splicing fitness of the first is lower: 0.00878 for the first, 0.00957 for the second.

Going from C82U A111C C150A C169G U176C to C82U A111C C150A C169G U176A, the reverse-splicing fitness falls from 0.0236 to 0.0162.

Going from C82U A111C C150A C169G U176G to C82U A111C C150A C169A U176G, the reverse-splicing fitness falls from 0.00835 to 0.00821.

Compared with C82U A111C C150A C169A U176A, C82U A111C C150A C169A U176C is higher in reverse-splicing fitness: 0.0162 for the first, 0.0175 for the second.

Compared with C82U A111C C150G C169U U176A, C82U A111C C150G C169U U176G is lower in reverse-splicing fitness: 0.00814 for the first, 0.00577 for the second.

First: C82U A111C C150G C169U U176C
Second: C82U A111C A145U C150G C169U U176C
The reverse-splicing fitness of the first is lower: 0.0111 for the first, 0.0119 for the second.

First: C82U A111C A145U C150G C169U U176G
Second: C82U A111C A145U C150G C169U U176A
The reverse-splicing fitness of the first is lower: 0.00671 for the first, 0.00807 for the second.

Going from C82U A111C A120U C150G C169U U176G to C82U A111C A120U C150G C169U U176C, the reverse-splicing fitness rises from 0.00265 to 0.00516.

First: C82U A111C A120U C150G C169U U176A
Second: C82U A111C A120U A145U C150U C169U
The reverse-splicing fitness of the first is higher: 0.00421 for the first, 0.0037 for the second.

Going from C82U A111C A120U A145U C150U C169G to C82U A111C A120U A145U C150U C169A, the reverse-splicing fitness falls from 0.00301 to 0.00252.

Going from C82U A111C A145U C150A C169G U176G to C82U A111C A145U C150A C169G U176A, the reverse-splicing fitness rises from 0.00796 to 0.0138.

First: C82U A111C A145U C150A C169G U176C
Second: C82U A111C A120U C169A U176G
The reverse-splicing fitness of the first is higher: 0.0178 for the first, 0.00185 for the second.

Compared with C82U A111C A120U C169A U176A, C82U A111C A120U C169A U176C is higher in reverse-splicing fitness: 0.00309 for the first, 0.00352 for the second.

Compared with C82U A111C A145G C150A C169G U176G, C82U A111C A145G C150A C169G U176C is higher in reverse-splicing fitness: 0.00685 for the first, 0.0256 for the second.

Compared with C82U A111C A145G C150A C169G U176A, C82U A111C A145U C150G C169A is lower in reverse-splicing fitness: 0.014 for the first, 0.00756 for the second.

First: C82U A111C A145U C150G C169U
Second: C82U A111C A145U C150G C169G
The reverse-splicing fitness of the first is higher: 0.00877 for the first, 0.00721 for the second.

Going from C82U A111C A145C C150G C169U U176A to C82U A111C A145C C150G C169U U176G, the reverse-splicing fitness falls from 0.00919 to 0.00606.

First: C82U A111C A145C C150G C169U U176C
Second: C82U A111C A145G C150A C169U U176G
The reverse-splicing fitness of the first is higher: 0.0106 for the first, 0.00739 for the second.

First: C82U A111C A145G C150A C169U U176C
Second: C82U A111C A145G C150A C169U U176A
The reverse-splicing fitness of the first is higher: 0.0157 for the first, 0.0144 for the second.

Compared with C82U A111C A145G C150A C169A U176G, C82U A111C A145G C150A C169A U176A is higher in reverse-splicing fitness: 0.00838 for the first, 0.0149 for the second.

Going from C82U A111C A145G C150A C169A U176C to C82U A111C A120U A145U C150U C169U U176A, the reverse-splicing fitness falls from 0.0197 to 0.00267.

Going from C82U A111C A120U A145U C150U C169U U176G to C82U A111C A120U A145U C150U C169U U176C, the reverse-splicing fitness rises from 0.00223 to 0.003.

Going from C82U A111C A120U C150U C169A U176A to C82U A111C A120U C150U C169A U176C, the reverse-splicing fitness falls from 0.00486 to 0.00372.

Going from C82U A111C A120U C150U C169A U176G to C82U A111C A145C C150U C169A U176C, the reverse-splicing fitness rises from 0.00291 to 0.01.

First: C82U A111C A145C C150U C169A U176G
Second: C82U A111C A145C C150U C169A U176A
The reverse-splicing fitness of the first is lower: 0.00687 for the first, 0.011 for the second.

Going from C82U A111C A145C C169G U176G to C82U A111C A145C C169G U176A, the reverse-splicing fitness rises from 0.00669 to 0.0274.

First: C82U A111C A145C C169G U176C
Second: C82U A111C C150U C169G
The reverse-splicing fitness of the first is higher: 0.0207 for the first, 0.00731 for the second.

First: C82U A111C C150U C169A
Second: C82U A111C A145G C150G C169G
The reverse-splicing fitness of the first is higher: 0.00914 for the first, 0.00689 for the second.

Going from C82U A111C A145G C150G C169U to C82U A111C A145G C150G C169A, the reverse-splicing fitness falls from 0.00879 to 0.0079.

Compared with C82U A111C A145C C150A C169G, C82U A111C A145C C150A C169A is higher in reverse-splicing fitness: 0.00773 for the first, 0.00786 for the second.

First: C82U A111C A145C C150A C169U
Second: C82U A111C A145U C150U C169A
The reverse-splicing fitness of the first is lower: 0.00887 for the first, 0.00889 for the second.

First: C82U A111C A145U C150U C169G
Second: C82U A111C A145U C150U C169U
The reverse-splicing fitness of the first is lower: 0.00836 for the first, 0.0107 for the second.

First: C82U A111C A145C C150U U176C
Second: C82U A111C A145C C150U U176G
The reverse-splicing fitness of the first is higher: 0.0358 for the first, 0.00938 for the second.

First: C82U A111C A145C C150U U176A
Second: C82U A111C A145G C150U C169U U176C
The reverse-splicing fitness of the first is higher: 0.0229 for the first, 0.0121 for the second.

Compared with C82U A111C A145G C150U C169U U176G, C82U A111C A145G C150U C169U U176A is higher in reverse-splicing fitness: 0.00645 for the first, 0.0144 for the second.

Going from C82U A111C A145G C150U C169A U176C to C82U A111C A145G C150U C169A U176G, the reverse-splicing fitness falls from 0.013 to 0.00752.

Going from C82U A111C A145G C150U C169A U176A to C82U A111C A145C C150G C169A U176C, the reverse-splicing fitness falls from 0.0141 to 0.0077.

Going from C82U A111C A145C C150G C169A U176G to C82U A111C A145C C150G C169A U176A, the reverse-splicing fitness rises from 0.00657 to 0.00873.
